US20180021430A1 (UNIVERSITAETSKLINIKUM FREIBURG, published 2018)

T1: recombinant CD40L, TNF homologous region of human CD40L (E108 to L261), produced as c-myc- and His-tag fusion … (human)
T1 construct: also called sCD40L; His-tag-CD40L fusion protein
T1 chain: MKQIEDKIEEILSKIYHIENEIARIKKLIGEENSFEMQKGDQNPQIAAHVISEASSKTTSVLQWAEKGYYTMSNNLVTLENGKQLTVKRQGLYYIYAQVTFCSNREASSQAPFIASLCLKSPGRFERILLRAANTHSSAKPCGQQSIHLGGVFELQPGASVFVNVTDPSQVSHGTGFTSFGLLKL


Tests used:
[1] = biological target: T2, recombinant Mac-1 I-domain, human Mac-1 (alpha M) amino residues R115 to S340, soluble His-tag fusion protein (human, UniProt P11215 131-356); assay: solid phase binding assay, one-site binding hyperbola; I-domain on immobilized CD40L, BSA wells subtracted
T2 construct: range 115-340; ~28 kDa; also called alphaM I-domain; not shown: C-terminal His-tag from vector pET20b
T2 sequence (P11215 131-356): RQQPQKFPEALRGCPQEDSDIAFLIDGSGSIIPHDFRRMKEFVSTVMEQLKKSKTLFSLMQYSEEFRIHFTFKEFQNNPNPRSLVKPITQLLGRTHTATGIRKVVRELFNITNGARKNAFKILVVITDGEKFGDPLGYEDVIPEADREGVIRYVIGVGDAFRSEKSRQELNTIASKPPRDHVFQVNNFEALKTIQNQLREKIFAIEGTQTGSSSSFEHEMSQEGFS
Method: (§1) Solid phase binding assay. […] A mixture of equal molarities of all peptides served as the positive control in this assay.
(§2) The recombinant Mac-1 I-domain was immobilized in 96-well plates (Nunc) in PBS at 4° C. overnight. […] Binding was quantified by addition of TMB-substrate (Pierce), colorimetric reaction at 450 nm. […] Binding of the recombinant Mac-1 I-domain was quantified by addition of anti-His-Biotin monoclonal antibody (Qiagen), HRP-coupled streptavidin (Pierce) and colorimetric reaction at 450 nm. […] Kd was estimated using a one-site binding hyperbola nonlinear regression model with the Software Prism (Graphpad). […] A mixture of equal molarities of all peptides served as positive control. Absorbance on BSA-coated wells served as negative control and was subtracted.

[2] = biological target: T1, recombinant CD40L, TNF homologous …; assay: solid phase competition assay: M7 against binding of CD40L to the immobilized I-domain
Method: as §1, §2

| Binder | Kd [1] [nM] | IC50 [2] [µM] |
| --- | --- | --- |
| CD40L without a His-tag (Provitro) (ligand, Bought protein; also called CD40L (Provitro); immobilized CD40L) MQKGDQNPQIAAHVISEASSKTTSVLQWAEKGYYTMSNNLVTLENGKQLTVKRQGLYYIYAQVTFCSNREASSQAPFIASLCLKSPGRFERILLRAANTHSSAKPCGQQSIHLGGVFELQPGASVFVNVTDPSQVSHGTGFTSFGLLKL | ~66 |  |
| EQLKKSKTL (linear fragment of the Mac-1 I-domain, E162-L170) [peptide M7 (EQLKKSKTL)] |  | ~4 |
